According to patent US7005130:

Columns and labels:
[1] = target: HPLC-purified recombinant ORF2 capsid protein of swine HEV (baculovirus-expressed) (swine HEV); test: ELISA, antigen coated at 2 µg/ml, serum 1/200; negative control
[2] = target: HPLC-purified recombinant ORF2 capsid protein of human HEV Sar-55 (baculovirus-expressed) (human HEV, Sar-55 strain (Pakistan)) (UniProt P33426); test: as above
Chain of UniProt P33426 (P33426 112-607): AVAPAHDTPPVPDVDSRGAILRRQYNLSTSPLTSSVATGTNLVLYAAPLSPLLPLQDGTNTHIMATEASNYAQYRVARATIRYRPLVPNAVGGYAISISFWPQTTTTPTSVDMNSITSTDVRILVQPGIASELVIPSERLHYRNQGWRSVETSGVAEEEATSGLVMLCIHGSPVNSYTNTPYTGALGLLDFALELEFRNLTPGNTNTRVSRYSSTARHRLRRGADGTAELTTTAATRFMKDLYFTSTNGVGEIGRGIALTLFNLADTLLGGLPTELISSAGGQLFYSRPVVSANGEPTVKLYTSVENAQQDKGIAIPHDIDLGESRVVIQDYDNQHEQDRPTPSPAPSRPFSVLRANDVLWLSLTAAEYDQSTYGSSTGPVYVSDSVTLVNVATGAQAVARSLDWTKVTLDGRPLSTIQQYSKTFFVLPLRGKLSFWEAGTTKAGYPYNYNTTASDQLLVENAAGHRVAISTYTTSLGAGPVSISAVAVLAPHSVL

Work on “preinoculation control chicken serum (antibody)” yielded an OD [1] of 0.103 OD at 405 nm and an OD [2] of 0.142 OD at 405 nm.
